Data as given in patent publication US20240083986A1 (published 2024).

T1: Apple (Mal d 1, MyBiosource, Cat #MBS1224919) (Apple, UniProt P43211 2-159, limits assumed)
T1 construct: Bought reagent
T1 sequence (looked up): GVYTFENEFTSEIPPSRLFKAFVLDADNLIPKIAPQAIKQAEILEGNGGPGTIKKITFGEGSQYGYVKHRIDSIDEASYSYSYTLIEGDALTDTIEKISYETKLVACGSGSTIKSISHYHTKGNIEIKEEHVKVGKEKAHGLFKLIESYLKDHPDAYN

T2: Celery (Api g 1, MyBiosource, Cat #MBS1171376) (Celery, UniProt P49372 1-154, limits assumed)
T2 construct: Bought reagent
T2 sequence (looked up): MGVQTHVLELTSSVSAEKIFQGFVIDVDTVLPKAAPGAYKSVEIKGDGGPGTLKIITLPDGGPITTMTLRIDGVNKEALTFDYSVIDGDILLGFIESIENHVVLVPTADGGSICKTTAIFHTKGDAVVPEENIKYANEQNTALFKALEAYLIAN

T3: European Hornbeam (Car b 1 isoform 1A & 1B, MyBiosource, Cat #MBS1200018) (European Hornbeam, UniProt P38949 2-160)
T3 construct: Bought reagent
T3 sequence (looked up): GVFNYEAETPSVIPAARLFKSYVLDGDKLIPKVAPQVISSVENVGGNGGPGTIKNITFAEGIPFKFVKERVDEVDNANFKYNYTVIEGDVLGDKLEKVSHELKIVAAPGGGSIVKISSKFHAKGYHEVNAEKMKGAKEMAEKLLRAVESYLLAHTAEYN

T4: natural Bet v 1 (Indoor, Cat #NA-BV1-1) (Betula verrucosa (European white birch, …, UniProt P15494 2-160))
T4 construct: Bought natural protein purified from birch pollen; also called nBet v 1
T4 sequence: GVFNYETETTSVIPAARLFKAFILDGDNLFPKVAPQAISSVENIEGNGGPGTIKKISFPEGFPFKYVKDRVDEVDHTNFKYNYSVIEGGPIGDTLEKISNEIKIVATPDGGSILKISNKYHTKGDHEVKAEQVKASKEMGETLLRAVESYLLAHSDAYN

T5: Alder (Aln g 1, MyBiosource, Cat #MBS1041484) (Alder, UniProt P38948 2-160, limits assumed)
T5 construct: Bought reagent
T5 sequence (looked up): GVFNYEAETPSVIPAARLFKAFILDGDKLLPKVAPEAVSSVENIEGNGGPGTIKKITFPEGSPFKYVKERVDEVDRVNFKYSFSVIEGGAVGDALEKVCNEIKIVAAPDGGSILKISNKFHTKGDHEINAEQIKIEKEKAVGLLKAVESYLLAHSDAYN


Legend:
[1] = target: T1, Apple (Mal d 1, MyBiosource, Cat …); test: SPR Biacore, 25C;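 also: binding of related allergens to purified monoclonal anti-Bet v 1 antibodies by surface plasmon resonance in HEPES-buffered saline pH 7.4, kinetics fitted to a 1:1 model with mass transport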
Description: (§1) Equilibrium dissociation constants (KD) for different related allergens binding to purified anti-Bet v 1 monoclonal antibodies were determined using a real-time surface plasmon resonance biosensor (SPR-Biacore) on a Biacore 4000 instrument. All binding studies were performed in 10 mM HEPES, 150 mM NaCl, 3 mM EDTA, and 0.05% v/v surfactant Tween-20, pH 7.4 (HBS-ET) running buffer at 25° C. […] Binding studies were performed on the following related allergens: Alder (Aln g 1, MyBiosource, Cat #MBS1041484), Apple (Mal d 1, MyBiosource, Cat #MBS1224919), Carrot (Dau c 1.2, MyBiosource, Cat #MBS1212920), Celery (Api g 1, MyBiosource, Cat #MBS1171376), Celery (Api g 2, MyBiosource, Cat #MBS1047880), European Hornbeam (Car b 1 isoform 1A & 1B, MyBiosource, Cat #MBS1200018), European Hornbeam (Car b 1 isoform 2, MyBiosource, Cat #MBS1043940), Hazel (Cor A 1, MyBiosource, Cat #MBS5304600), and White Oak (Que a 1, MyBiosource, Cat #MBS1258822). […] Association (kₐ) and dissociation (kd) rate constants were determined by fitting the real-time binding sensorgrams to a 1:1 binding model with mass transport limitation using Scrubber 2.0c curve-fitting software. Binding dissociation equilibrium constants (KD) and dissociative half-lives (t½) were calculated from the kinetic rate constants as:

[2] = target: T2, Celery (Api g 1, MyBiosource, Cat …); test: SPR Biacore, 25C;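 also: binding of related allergens to purified monoclonal anti-Bet v 1 antibodies by surface plasmon resonance in HEPES-buffered saline pH 7.4, kinetics fitted to a 1:1 model with mass transport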
Description: as §1

[3] = target: T3, European Hornbeam (Car b 1 isoform 1A & …); test: SPR Biacore, 25C;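 also: binding of related allergens to purified monoclonal anti-Bet v 1 antibodies by surface plasmon resonance in HEPES-buffered saline pH 7.4, kinetics fitted to a 1:1 model with mass transport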
Description: as §1

[4] = target: T4, natural Bet v 1 (Indoor, Cat #NA-BV1-1); test: SPR Biacore, mAb captured on anti-hFc, 25C;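 also: rate constants from sensorgrams fitted to a 1:1 model with mass transport limitation, KD and t½ derived from kinetic constants, run in HBS-ET buffer at pH 7.4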
Description: (§2) Equilibrium dissociation constants (KD) for natural Bet v 1 binding to purified anti-Bet v 1 monoclonal antibodies were determined using a real-time surface plasmon resonance biosensor (SPR-Biacore) on a Biacore 4000 instrument. All binding studies were performed in 10 mM HEPES, 150 mM NaCl, 3 mM EDTA, and 0.05% v/v surfactant Tween-20, pH 7.4 (HBS-ET) running buffer at 25° C. and 37° C. […] Association (kₐ) and dissociation (kd) rate constants were determined by fitting the real-time binding sensorgrams to a 1:1 binding model with mass transport limitation using Scrubber 2.0c curve-fitting software. Binding dissociation equilibrium constants (KD) and dissociative half-lives (t½) were calculated from the kinetic rate constants as:

[5] = target: T4, natural Bet v 1 (Indoor, Cat #NA-BV1-1); test: SPR Biacore, mAb captured on anti-hFc, 37C;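 also: purified anti-Bet v 1 monoclonal antibodies, HBS-ET running buffer pH 7.4, rate constants from 1:1 model fit with mass transport limitation, KD and t½ calculated from kinetic constants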
Description: as §2

[6] = target: T5, Alder (Aln g 1, MyBiosource, Cat …); test: SPR Biacore, 25C;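 also: binding of related allergens to purified monoclonal anti-Bet v 1 antibodies by surface plasmon resonance in HEPES-buffered saline pH 7.4, kinetics fitted to a 1:1 model with mass transport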
Description: as §1

Binder	binding result [1]	binding result [2]	binding result [3]	100 nM natural Bet v 1 Bound (RU) [4] [RU]	Kd [4] [nM]	koff [4] [s⁻¹]	kon [4] [M⁻¹ s⁻¹]	t½ [4] [min]	100 nM natural Bet v 1 Bound (RU) [5] [RU]	Kd [5] [nM]	koff [5] [s⁻¹]	kon [5] [M⁻¹ s⁻¹]	t½ [5] [min]	binding result [6]
H4H17033P (antibody, human IgG4, V domains shown) VH: QVQLVQSGAEVKKPGASVKVSCKASGYTFAAHYMHWVRQAPGQGLEWMGWINTYTGGTNYGQKFQGRVTMTRDTSITTAYMELSRLRSDDTAVYYCARDRRNWNFVFEYWGQGTLVTVSS VL: DIQMTQSPSSLSASVGDRVTISCRASQNIKNYLNWYQQKPGKAPKLLIYEASNLQSGAPSRFSGSGSGTDFTLTISSLEPEDFATYYCQQSFSIPWTFGQGTKVEIK	no binding (tested: 100 nM)		no binding (tested: 100 nM)	61	1.19	0.000469	394000	25	74	1.9	0.00119	627000	10	no binding (tested: 100 nM)
H4H17028P (antibody, human IgG4, V domains shown) VH: QVQLVESGGGVVQPGRSLRLSCAASGFTFSRYAIHWVRQAPGKGLEWVAVISYDGDDKYYGDSVKGRFTISRDNSKTMVYLHMNSLRTEDTAVYYCAKDGYSLYGKDYFDYWGQGTLVTVSS VL: EIVLTQSPGTLPLSPGERATLSCRASQSITNSYLAWYQQKPDQAPRLLIYGASSRATGIPDRFSGSESGTDFTLTISRLEPEDFAVYYCQQYVRSPWTFGQGTKVEIK	no binding (tested: 100 nM)	no binding (tested: 100 nM)		63	3.79	0.00107	281000	11	71	7.77	0.0029	373000	3.9	
H4H16992P (antibody, human IgG4 S228P, kappa, V domains shown, human IgG4; also called REGN5713; MAB1) VH: QVQLQESGPGLVKPSETLSLTCSVSGGSITNYFWTWIRQSPGKGLEWIGYIYYSGGTNYNPSLKSRVTISIDTSKNQFSLNMNSVTAADTAVYYCAGSYYYGVDVWGQGTTVTVSS VL: EIVLTQSPATLSLSPGERATLSCRASQSIKSFLAWYRQKPGQAPRLLIYDASNRPTGIPARFSGSGSGTDFTLTINSLESEDFAVYFCQQRNNWPFTFGPGTKVDIKR	no binding (tested: 100 nM)	no binding (tested: 100 nM)												no binding (tested: 100 nM)
H4H17038P2 (antibody, human IgG4 S228P, kappa, V domains shown, human IgG4; also called REGN5714; MAB3) VH: EVQLVESGGDLVQPGGSLRLSCAASGFTFSSYEMNWVRQAPGKGLEWVSFISDSSSNIYYADSVKGRFTISRDNAKKSLYLQMTSLRAEDTAVYYCAREAIGSTSFDNWGQGTLVTVSS VL: EIVMTQSPATLSVSPGERATLSCRASQSVSSSLAWYQQKPGQAPRRLIYSASTRATGIPARFSGSGSGTEFTLTISSLQSEDFAIYYCHQYNNWPLTFGGGTKVEIKR	no binding (tested: 100 nM)	no binding (tested: 100 nM)												no binding (tested: 100 nM)
H4H17031P (antibody, human IgG4, V domains shown) VH: QVQLQQWGAGLLKPSETLSLTCVVYGESFGNYHWNWIRQSPGKRLEWIGEINQNGHTNYNPSLKSRVTISVDTSKIQFSLRLNSVTAADTAVYFCARGHNYVNSYFGLDVWGQGTTVTVSS VL: EIVMTQSPATLSVSPGERATLSCRTSQSVSISLAWYQRKPGQAPRLLIFGSSTRATGVPARFSGSGSGTEFTLTISSLQSEDFAVYYCQQYNNWPYTFGQGTKLEIK	no binding (tested: 100 nM)	no binding (tested: 100 nM)		54	13.5	0.00168	124000	6.8	63	27.9	0.00544	485000	2.1	
H4H17027P (antibody, human IgG4, V domains shown) VH: EVQLVESGGGLVQPGGSLRLSCAASGFTFRNYAMHWVRQAPGEGLEWVAAIYRNSDSIDYADSVKGRFTISRDNAKNSLYLQMNSLKTEDTALYYCAKDEGFLEYFDSWGQGTLVTVSS VL: EIVLTQSPGTLSLSPGERASLSCRASQSVSSSFLAWYQQKPGQAPRLLIYGVSSRFIGIPDRFSGGGSGTDFTLTITRLEPEDFAVYYCQQYGRSPWTFGQGTKVEIK	no binding (tested: 100 nM)	no binding (tested: 100 nM)		48	4.32	0.00027	62400	43	67	9.48	0.00093	98100	12	

More lines, in order of falling Kd [4], values ahead:

binding result [1]	binding result [2]	binding result [3]	100 nM natural Bet v 1 Bound (RU) [4] [RU]	Kd [4] [nM]	koff [4] [s⁻¹]	kon [4] [M⁻¹ s⁻¹]	t½ [4] [min]	100 nM natural Bet v 1 Bound (RU) [5] [RU]	Kd [5] [nM]	koff [5] [s⁻¹]	kon [5] [M⁻¹ s⁻¹]	t½ [5] [min]	binding result [6]	Binder
	no binding (tested: 100 nM)	no binding (tested: 100 nM)	57	3.26	0.000781	240000	15	66	6.93	0.00244	352000	4.7		H4H16971P (antibody, human IgG4, V domains shown) VH: QVQLVESGGGVVQPGRSLRLSCAASGFTFSSYGLHWVRQAPGKGLEWVAVISDDGSYKFYADSMKGRFTISRDNSKNTLYLQMNSLRAEDTAVYYCAKDRGRSGWYYFDYWGQGTLVTVSS VL: not shown
no binding (tested: 100 nM)	no binding (tested: 100 nM)	no binding (tested: 100 nM)	61	2.77	0.00114	410000	10	74	9.16	0.00477	520000	2.4		H4H16987P (antibody, human IgG4 S228P, kappa, V domains shown, human IgG4; also called MAB4) VH: EVQLVESGGGLVQPGGSLRLSCAASGFTVSSNSMSWVRQAPGEGLEWVSVIFSGGITYYSDSVKGRFTISRHNSKNTLYLQMNSLRTEDTAVYYCARHSNWNFDAFDIWGQGTMVTVSS VL: DIQMTQSPSSLSASVGDRVTITCRASQSFDTYLNWYQQKPGKAPNLLIYATSSLQSGVPSRFSGSGSGTDFTLTISSLQPEDFGTYYCQQSYSIPYTFGQGTKLEIKR
no binding (tested: 100 nM)	no binding (tested: 100 nM)	no binding (tested: 100 nM)	41	1.21	0.000278	230000	42	52	1.8	0.000616	342000	19	no binding (tested: 100 nM)	H4H16979P (antibody, human IgG4, V domains shown) VH: QVQLVQSGAEVKKPGASVKVSCKASGYTFIAYYLHWVRQAPGQGLEWMGLLNPYTGGSYYTQKFQGRVTMTRDTSIDTAYMELNSLRSDDTAIYYCARDKRSYYIPYAFEIWGQGTMVTVSS VL: not shown
no binding (tested: 100 nM)	no binding (tested: 100 nM)		74	0.982	0.000201	205000	58	93	2.08	0.000601	289000	19	no binding (tested: 100 nM)	H4H16946P (antibody, human IgG4, V domains shown) VH: EVQLVESGGGLVQPGGSLRLSCVASGFTFSNYDMNWVRQAPGEGLEWISYISYSDHNIYYIDSVKGRFTISRDNAKNSLYLQMNSLRAEDTAIYYCAREALASSSFDYWGQGTLVTVSS VL: EIVMTQSPATLSVSPGERVTLSCRASQSVSGNLAWYQQKPGQAPRLLIYSASTGATGVPARFSGSGSGTEFTLTISSLQSEDFALYYCQQYNKWPRTIGQGTKVEIK
